# Columns and labels:
# [1] = molecular target: MBP-CfaE-N (recombinant N-terminal adhesin domain of CfaE fused to an MBP tag) (enterotoxigenic Escherichia coli (ETEC)) (UniProt P25734); test: SPR (Biacore T200), CfaE on CM5 chip, VHH injected, 25 C, 1:1 model
# [2] = molecular target: CS3 on ETEC strain #100483 (enterotoxigenic Escherichia coli (ETEC)); test: cell-based or functional assay
# [3] = molecular target: CS6 on ETEC strain #100001 (enterotoxigenic Escherichia coli (ETEC)); test: cell-based or functional assay
# [4] = molecular target: CS17 on ETEC strain (enterotoxigenic Escherichia coli (ETEC)); test: cell-based or functional assay
# [5] = molecular target: CS1 on ETEC strain #200145 (enterotoxigenic Escherichia coli (ETEC)); test: cell-based or functional assay
# [6] = molecular target: CS4 on ETEC strain (enterotoxigenic Escherichia coli (ETEC)); test: cell-based or functional assay
# [7] = molecular target: CS19 on ETEC strain #204648 (enterotoxigenic Escherichia coli (ETEC)); test: cell-based or functional assay
# [8] = molecular target: CS21 on ETEC strain #100171 (enterotoxigenic Escherichia coli (ETEC)); test: cell-based or functional assay
# [9] = molecular target: T1, CFA/I fimbrial protein (with adhesin subunit CfaE) on ETEC strain H10407 (enterotoxigenic Escherichia coli (ETEC)) (UniProt P25734); test: cell-based or functional assay
# T1 sequence (looked up): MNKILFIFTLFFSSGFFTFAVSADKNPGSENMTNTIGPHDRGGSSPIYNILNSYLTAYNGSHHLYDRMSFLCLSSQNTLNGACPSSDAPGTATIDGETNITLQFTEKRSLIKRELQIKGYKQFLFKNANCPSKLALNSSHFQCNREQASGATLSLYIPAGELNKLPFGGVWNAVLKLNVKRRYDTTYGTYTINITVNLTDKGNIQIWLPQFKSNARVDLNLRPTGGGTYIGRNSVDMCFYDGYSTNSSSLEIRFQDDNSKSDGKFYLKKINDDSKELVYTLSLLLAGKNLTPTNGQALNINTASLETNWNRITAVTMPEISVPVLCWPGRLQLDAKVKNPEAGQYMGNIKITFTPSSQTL
# [10] = molecular target: CS14 on ETEC strain #400599 (enterotoxigenic Escherichia coli (ETEC)); test: cell-based or functional assay
# [11] = molecular target: CS2 on ETEC strain #201546 (enterotoxigenic Escherichia coli (ETEC)); test: cell-based or functional assay
# [12] = molecular target: CS5 on ETEC strain #204348 (enterotoxigenic Escherichia coli (ETEC)); test: cell-based or functional assay
Binder,Kd [1] [nM],koff [1] [s⁻¹],kon [1] [M⁻¹ s⁻¹],MRHA IC100 [2] [µg/mL],MRHA IC100 [3] [µg/mL],MRHA IC100 [4] [µg/mL],MRHA IC100 [5] [µg/mL],MRHA IC100 [6] [µg/mL],MRHA IC100 [7] [µg/mL],MRHA IC100 [8] [µg/mL],MRHA IC100 [9],MRHA IC100 [10] [µg/mL],MRHA IC100 [11] [µg/mL],MRHA IC100 [12] [µg/mL],Caco2 adhesion assay: concentration at which adhesion was inhibited [9] [µM]
VHH antibody 1H4 (monomeric) (VHH) VHH: EVQLVESGGGLVQAGGSLRLSCAASSRTFNHYNIGWFRQAPGKEREFAAAITWNGRSTLYADSVKGRFTISRDNAKNTVYLQMNSLKPEDTAVYYCATLTTWEHKWEYNSQGQGTQVTVSS,18.3,0.000513,28100,100,25,6.25,100,25,100,25,200 µg/mL,100,100,3.12,
trimeric 2R215 (VHH) QVQLQESGGGLVQAGGSLRLSCAASGNIFQDAEMGWYRQAPGKEREFVATIAYGGNTNYADSVKGRFTISRDNAKNTVYLQMNSLKPEDTAVYYCAVYTGVYYDRTTGGYVAFEYWGQGTQVTVSSGGGGSGGGGSGGGGSQVQLQESGGGLVQAGGSLRLSCAASGNIFQDAEMGWYRQAPGKEREFVATIAYGGNTNYADSVKGRFTISRDNAKNTVYLQMNSLKPEDTAVYYCAVYTGVYYDRTTGGYVAFEYWGQGTQVTVSSGGGGSGGGGSGGGGSQVQLQESGGGLVQAGGSLRLSCAASGNIFQDAEMGWYRQAPGKEREFVATIAYGGNTNYADSVKGRFTISRDNAKNTVYLQMNSLKPEDTAVYYCAVYTGVYYDRTTGGYVAFEYWGQGTQVTVSSHHHHHH,,,,,,,,,,,2.5 µM,,,,0.567
dimeric 2R215 (VHH) QVQLQESGGGLVQAGGSLRLSCAASGNIFQDAEMGWYRQAPGKEREFVATIAYGGNTNYADSVKGRFTISRDNAKNTVYLQMNSLKPEDTAVYYCAVYTGVYYDRTTGGYVAFEYWGQGTQVTVSSGGGGSGGGGSGGGGSGGGGSGGGGSGGGGSQVQLQESGGGLVQAGGSLRLSCAASGNIFQDAEMGWYRQAPGKEREFVATIAYGGNTNYADSVKGRFTISRDNAKNTVYLQMNSLKPEDTAVYYCAVYTGVYYDRTTGGYVAFEYWGQGTQVTVSSHHHHHH,,,,,,,,,,,1.25 µM,,,,1.8
